Data as given in the domain aggregation screens of Martell et al. (2025).

Assay: soluble fraction after stress (log2 fold change); higher = more stays soluble; pooled small domains, quantitative proteomics
Conditions: stress: 75 degC
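Note: 20 min heating vs room temperature control held 20 min.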

Row | Sequence | soluble fraction (log2)
1 | HMDSIQMKNNSILYYGNTAGYLDAKRNTAVVDPMFRTDEMESYLSEQKGLSVEWASGTYDRLT | 0.0501
2 | HMSVRPMVEILRVVGSPSPVWVTWARNRAAWLYETGIRPQQRLRMADGTEVLIRLVGEFAHILVVGG | 0.092
3 | HMQQAVTMQKPGRLLRNADGNGGAVRDLDVGMMLYPTGNRSELMWEVDDELGNRGWVNSTLFGLS | 0.013
4 | HMSRVFSPSELEIRHAQDVFQALEEAKRQGKGAVSLNGKMIDAPIVARAKLVLEAAAAIYGED | -0.379
5 | HMSSSLDQLTVREREILAQVSRGLSNKAIARELGISHDTVKLHVRHILSKLGFSSRVEAAVFAIEHRIG | -2.35
6 | HMVQVPSLVGISEIEAKTLLTQAGFFVKIVEVFDANQPVGIVLAQAPSAGESRIIGSPVTITVNKAQ | -2.41
7 | HMTANTQVENIRLELQRYMDEHGISQVTVARGIGKTHPVISQFLNNKYPGDVEEVARAIESWLTKQHEKAA | -0.128
8 | HMQYTQKTMYINDSYVNLRKSASTSSDIIMVVELNTKLTVIGEDGDWYKVKTSSGNAYVLKTLLSNEKKET | -3.22
9 | HMPLEQAELRLDLKQAILQMDRQTQELLLLRYVDGLSPGEAGKVLELSRFAVYRREKEALRKLRDYFSH | -1.93
10 | HMQTMTAGERREAILRELEQAQGPVSASALAKRFHVSRQAVVGDVAMLRALNSPIAATPRGYVLTR | -0.322
11 | HMIPTTELAERLGTTKVANMIMLGALIKASGIISFDDMIKNLGELLGEGKAKLIKLNKEALEVGFN | 0.139
12 | HMVSIGSQVAKRRRELRLTQQNLAEKMGVSFQAISSWEREEFLPDINKLQKLAAILNTKISYLLEE | -1.33
13 | HMPPENVSVRREQIAEDKKTVYNVWVTKGNKTVLYSKVVYAWGGVYFFRDLNTSISENMYKQADAGLVN | 0.00373
14 | HMKAPPLTDREKEILRWVAAGLQNKEIAHKLGISLATVRNHIHNILEKLDVHSKLEAVSLAFRQGWVS | -0.356
15 | HMFKDVTVPSVINKTEAEATNMLKGLNLVVSVEYEENANKSDGIVTAQNVNANKVIKEGETVTITVNKQP | 0.113
16 | HMKSILDDVVGLGPVRKKALLSAAGGFRKLRDMDVDEVIGLGAVPEEVAREVVTVLAQYNGERDRVEGL | -0.146
17 | HMRAPEIEAARSDLDVGQTVQIVRHLHGNQYEVFYRGAQWQAEAVGSSGANDAQTAVITGKNGNILLIQI | 0.0986
18 | HMIESLKGILHKKDPTIAIIDVGGVRLSVNITLSTYEKLEEINSSIELLTYFNVREDAMELYG | -0.468
19 | HMKMQPVISQGVLYINNVTDVRTIEVFDISGRIVADAAASTTVNIAHLNEGPYIVKVTTVNGIESIKILNK | -2.5
20 | HMSDEINYVIQINGKNRAEAEFGANLDKESIENLALEHERIKELLNGLTVRKIIVVPKKLVNIVA | -0.556
21 | HMNPLLSAYLAEVERGLQGLTAGRRRLVLRELEAHLLDEAEARGLLTEEDMRALLMEKEPPERLAQEIAQ | -0.253
22 | HMFEYDEEEYEKLGPNADLTIKSMTDWGQSLVRKGVWSESDFEEFKIMGGTAQGLRALQKVRSYY | -0.649
23 | HMFPNQLLISRLSNQLSASERFAAVSSIAQLKNIDYDVLHVLVHTMNSDPNSNVRLAALEALSR | -0.459
24 | HMIAVIKPSATAEQKAGLVDWIRGQGIDVHISEGHDYTVLGLIGDTSKIDMDLIASLDIVDSVKRVA | -0.338
25 | HMSKLSVSSLSSPEVQNQLKAAGIDVNSRQYQVVMKDMMGALDGRAGYTTVSAIKNRMRQYNADGDY | 0.687
26 | HMADGTSIYAEREVLYVTSPTANTAKVYNVSGALVRTMTLSAGQTVRTALPAGFYVVALGNGNTHKVIV | -2.4

Row | Sequence | soluble fraction (log2)
27 | HMFYWTDLIGLDVINTADERLGKVVGLIETGANAVLRVMGDDQVERLLPFGSAVVLTVEKEAGQIRVEW | -2.11
28 | HMNPIEAQIEELKNKDQKTAYQALKHLLAISETRAEVSYYFDRFVALLQDPQSYVRTRGLLLIGA | 0.584
29 | HMPGRPSRISDAVKDQIDHDLRKNPRDLGYSQNLWDGKLLSHHLKERYQITLGIRQAQRLFHQLGFRQR | -0.846
30 | HMKKERITWDERLERFAKYITENESLPYPSSKEHAWFEENKALYDAGELESVRAQSFSFLLKILRRMNLI | -0.787
31 | HMNKELVVPDLTDMRVKDAEFEAHQVGMRTEIVDSVYVRRLKRGYVYKQNPVPGSKVKKGRRIALTINAV | 0.212
32 | HMNIMNINQALNVLNLKGTVSKEELAKAYKKMAIKYHPDRNPTGVEMMKVINSAYEFLKGLNLEEIKH | 0.0759
33 | HMYFGNSLFQARKRSGLSQEGVAEKLGVSRQTVSKWETGETVPDIYQSKKMARLYGVSLDEL | 0.206
34 | HMKKTTEFAVTPEFQQRLEASPELKAAFQALTPGRQRAHLLFFAAPKQAQTRQARIEKSLPQIMAGKGLN | -0.2
35 | HMGNIYKALLGKLEKQLGFLPEGTKLPPEQELAEKFGVSKPTLRRALAELAVRGIIVKQNGIGSVVAGS | -0.55
36 | HMRTEGNLGAKVRVLRRSQGMTQAELARRLGISPSYLNLIEHNRRSFTADLLVKLAKILPVNLKT | -2.5
37 | HMNIWNEWAFKKWIESDEYTGPDMTDFGHRTLVDEEFSKQYKEQMSLFKERVLTDDEFSAKYGDL | -0.811
38 | HMNLDPHVVGHRLRDLRTRRDLTLADVAAETDISVSTLSRLESGSRRATLELLVPLARTYRVTLDELVDA | -1.15
39 | HMLGERIRTLRKEIGMSVTELARRVKTSPSHISEIERGEKMPSLNLLVKIAKELKTSIDYLTGLVG | -0.498
40 | HMNPETLTNGSVVKMSKANLSDELIIDMINNSPARFDLSSGALRSLEGEGVSKAVIESMKRATSG | 0.283
41 | HMAYSEEERNLIRSRLKDVAAALFKEKGIRDTNIDEIYTPVGISKTFFYSFFPSKAVLAIAIMK | -0.248
42 | HMRDSYTFEDIEKLKDSYLQDSEKALEKLISIYEDTNQSLAIRTAALDIITDSQDPTFKLALEKIIS | -0.177
43 | HMEMLQENIRNLRKAKGWSQEELAIKLNVVRQTVSKWEKGLSVPDSQMLIRIADELDTTVAILLG | -0.705
44 | HMTAPQAQDYARVPDVLGLDMRESAQALRLDGFEMNAQGDGLAARQSPIGGSYAPEGTQVLVTFEM | 0.053
45 | HMTELPLTPRSKRILEMSALEARRLNHSYIGTEHLLMAIIRDGDGVAAKILESLGVNLPNFYTDTVRSIE | 0.0533
46 | HMSKKIVLPAAITVKKFSETLDMPLGTVISELMKNGILATINERIDFETASIIAQDLGYEVSEEV | -0.216
47 | HMKINVQETEVYRYLLERADRLYSMILGEERENLMERTRFFEKEVAKASLPHLPKLYDEFSIYLDRLERG | -0.393
48 | HMPYSPTPGSAPARLIAHLQEHGDSVNRTAIAELLQVDRKNVHNYLARAVTHGLLLRHGGGAYSLP | 0.0908
49 | HMYLPGERMRIKITALGSNPKQGVGYLPDGMMVVVDEAATLVGRFVEIEFVKFLQTNSGRMMFAKVAT | -1.96
50 | HMKLEEITIIVPSLRLDNFVSDLARTSRSKAVQIIDSERVFINGQNETKASKQVKLGDVITSA | -0.211
51 | HMSSYMQMQLERLESLLQKNDLTDSDKYDIRQLVEDLDKVPESVSPNLVGAYMTIKNRYASVLKTVL | 0.0189
52 | HMFLTSDEGKIMQLLEDKQRITRKDAQELLGVSQSTAGRILKTLVDNGQITQRGGGRTTRYELIK | 0.104

Row | Sequence | soluble fraction (log2)
53 | HMIGDYALILNIKGGSDWYLGNRVELLFTDGTSKIVTTDKDYNAKKDMVPTQIVTYKVNDNGEYSLKALPT | -2.13
54 | HMPLEKGVVILDVTPSSAKVAVDGTSVETTYPLRLSAGLHQLSAEADGYDSITEYFKVETEKTTVTLDLSK | 0.236
55 | HMIGKLTSSKLAAIHKMKTNELLAHFTEKGFLNINDAGKYILTQQGKDVGAEFKTSQYGGYFLWPENIE | -0.666
56 | HMRITEQRRTLAKLFADTPGYLSPKDVYDYMGRFYPGLSFDTVYRNLRLLDELGVLEQVVFEDGVKFK | -0.847
57 | HMFSIDRNIRRLRKEAGLTQEELAQKLFVTRQTISLWELGKVHPDLETLQKLAEQFQVDLLQVLYGPE | -2.33
58 | HMNYTSEDIKLASELFFHLLNNRILPANDVLASQYYDNNEIREILENMAEEGGLRIFGTRENLHLVSNGE | 0.00512
59 | HMGNKKLVLKLSKKLIKIPSFLNIYSVKLTKNGRELEINLDKSQNEAIDIINLIKKNNISFLEFDIKKR | -1.43
60 | HMGRKEIIVPNLLGKYAIEAGTILKNAGLLEGQAREENSDTYPAGQIMDQFPKANTPANENDKVDYVVSI | ≥ 1.04
61 | HMENLRLSELTVERGHRLAGRTLADIASAPNSPKYLIVLIQRGQETVIPTGSTVILPGDVLILAQS | -1.7
62 | HMGDFLLTPHRGRSADFVIGNPPYIRLEDVPNDISDAYRAEYASMPGRADIHVGFYEKGLDL | -0.117
63 | HMKNLDILTPKEIEVLNLVAKGYSNSKISKELDIAEVTVKKHIGSMFQKLDVKDRLSLALIL | -0.591
64 | HMSKYGIAYSEVLEILKHIPIEDYNKIPRNEIELFETYADKDFTFNYDSSKTLEEQNVSNITKGIIIL | -0.56
65 | HMVSVPDIGEKLPDFTGTPKRLLTPLLNKNDVNIIIKGDGWVVSQKPPAGTPVTKGMTIEFTL | -0.525
66 | HMVIVGGDVIVHYVDTEGKKISDDVVKSGNVGEDYSTDQKTILGYRFKEVQGNTSGKFTDKTQVVTYIYT | 0.649
67 | HMKTTKESLLEYIQREVFTDSIHKEGLSTNEIADAFQIQRSNVSSLLNTLVKEGKLEKTTGRPVLYRIPEK | -0.126
68 | HMESFGVAIKRLREAQGWTRADFLRQLGKTGYYMHATTLKRIEEGEQIAKVHEAVIISRLFGVTVEEMG | -3.1
69 | HMTKSSAYLSAEKLINKKQYSDAIVKLNDALVTDSKNADIYNYLGFSHRKLGKMEDAAFFYNKALE | 0.0234
70 | HMQLKFTDLRKEILRMIWEGHGPQKAYDLLNKLQQTNPSAKPATVYRALDFLIGNGFIHKVASLNAFVG | -0.59
71 | HMIQTMVVTDLKNGTIFKENGHPFIVLKYEHIKVSRGSAQVRVKMKNLITGQVLEKSWQSTAHVDDT | -3.24
72 | HMKPTVKVPNVVNLSLRNAQIQLQNYGLEVGSISYESSRFKNAVLRQSISEGSVVEKGTTINLVISDGL | -1.56
73 | HMELSVTDRTRQIRHILKEKGRVEFTSLFEELTKPYVIVTFLSVLEMSKNNELMITQDKTFGSITLEMKG | -0.446
74 | HMNGKPDMTPIPAGSRNNDLHAWAYGRLLNHPDNAEAIRRDLFERGQTSGLKESELETIWQSIRRQLGGD | 0.44
75 | HMGGGFLVPSLVGKSLEEARSLSELRGFKLEVGDYVISSEYPAGRVTRQNPANGAKGQEGDVIKVEVSS | -0.00395
76 | HMSNEYLMPNLIGMSWDEAKSKYSQYMTLVPEQEWSEVTKDQIFDQEYPEGRKVKIGTEVTVKVSMGI | -0.654
77 | HMSEEIKVPNFVGSTFEKAQALAQETGLEIARGEDVYSPDQEEGKITSQNPTADSVVSPGKLITVYVSKG | 0.385
